Reference: paper doi:10.1101/2023.07.07.548075 (bioRxiv, 2023)

Target: the molecule itself
Assay: SEC

B1: MBP-Δexon3 NLRP3 + GSGAGG linker (human NLRP3 3-1036, Δ95-134 + linker (GSGAGG)) (natural protein)
chain: MASTRCKLARYLEDLEDVDLKKFKMHLEDYPPQKGCIPLPRGQTEKADHVDLATLMIDFNGEEKAWAMAVWIFAAINRRDLYEKAKRDEPKWGSGAGGDYRKKYRKYVRSRFQCIEDRNARLGESVSLNKRYTRLRLIKEHRSQQEREQELLAIGKTKTCESPVSPIKMELLFDPDDEHSEPVHTVVFQGAAGIGKTILARKMMLDWASGTLYQDRFDYLFYIHCREVSLVTQRSLGDLIMSCCPDPNPPIHKIVRKPSRILFLMDGFDELQGAFDEHIGPLCTDWQKAERGDILLSSLIRKKLLPEASLLITTRPVALEKLQHLLDHPRHVEILGFSEAKRKEYFFKYFSDEAQARAAFSLIQENEVLFTMCFIPLVCWIVCTGLKQQMESGKSLAQTSKTTTAVYVFFLSSLLQPRGGSQEHGLCAHLWGLCSLAADGIWNQKILFEESDLRNHGLQKADVSAFLRMNLFQKEVDCEKFYSFIHMTFQEFFAAMYYLLEEEKEGRTNVPGSRLKLPSRDVTVLLENYGKFEKGYLIFVVRFLFGLVNQERTSYLEKKLSCKISQQIRLELLKWIEVKAKAKKLQIQPSQLELFYCLYEMQEEDFVQRAMDYFPKIEINLSTRMDHMVSSFCIENCHRVESLSLGFLHNMPKEEEEEEKEGRHLDMVQCVLPSSSHAACSHGLVNSHLTSSFCRGLFSVLSTSQSLTELDLSDNSLGDPGMRVLCETLQHPGCNIRRLWLGRCGLSHECCFDISLVLSSNQKLVELDLSDNALGDFGIRLLCVGLKHLLCNLKKLWLVSCCLTSACCQDLASVLSTSHSLTRLYVGENALGDSGVAILCEKAKNPQCNLQKLGLVNSGLTSVCCSALSSVLSTNQNLTHLYLRGNTLGDKGIKLLCEGLLHPDCKLQVLELDNCNLTSHCCWDLSTLLTSSQSLRKLSLGNNDLGDLGVMMFCEVLKQQSCLLQNLGLSEMYFNYETKSALETLQEEKPELTVVFEPSW
- binding result: binds
